Test results: patent publication US20250376511A1 (Sanofi, published 2025)

T1: Human active C1s (Complement Technology) (human, UniProt P09871 16-688)
T1 sequence: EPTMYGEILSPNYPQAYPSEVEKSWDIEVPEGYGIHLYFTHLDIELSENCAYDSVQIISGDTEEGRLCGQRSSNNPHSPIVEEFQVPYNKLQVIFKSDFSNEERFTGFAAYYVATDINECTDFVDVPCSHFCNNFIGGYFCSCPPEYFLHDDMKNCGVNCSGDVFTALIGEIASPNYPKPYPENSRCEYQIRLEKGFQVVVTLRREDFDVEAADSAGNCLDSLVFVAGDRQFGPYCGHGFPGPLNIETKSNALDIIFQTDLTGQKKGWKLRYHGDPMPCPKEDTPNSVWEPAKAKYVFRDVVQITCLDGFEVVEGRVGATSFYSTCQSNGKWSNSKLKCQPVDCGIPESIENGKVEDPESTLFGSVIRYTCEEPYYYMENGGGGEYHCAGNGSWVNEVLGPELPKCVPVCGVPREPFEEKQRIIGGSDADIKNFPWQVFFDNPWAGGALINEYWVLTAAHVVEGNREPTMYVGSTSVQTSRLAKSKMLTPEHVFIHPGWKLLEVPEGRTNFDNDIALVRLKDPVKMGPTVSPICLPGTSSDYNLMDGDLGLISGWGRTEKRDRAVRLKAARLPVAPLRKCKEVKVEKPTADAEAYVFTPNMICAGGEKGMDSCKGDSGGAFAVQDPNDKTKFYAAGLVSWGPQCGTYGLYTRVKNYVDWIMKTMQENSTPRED

T2: cynomolgus aC1s (cynomolgus, UniProt A0A2K5VQX9 16-685)
T2 construct: also called Cyno aC1s; caC1s
T2 sequence: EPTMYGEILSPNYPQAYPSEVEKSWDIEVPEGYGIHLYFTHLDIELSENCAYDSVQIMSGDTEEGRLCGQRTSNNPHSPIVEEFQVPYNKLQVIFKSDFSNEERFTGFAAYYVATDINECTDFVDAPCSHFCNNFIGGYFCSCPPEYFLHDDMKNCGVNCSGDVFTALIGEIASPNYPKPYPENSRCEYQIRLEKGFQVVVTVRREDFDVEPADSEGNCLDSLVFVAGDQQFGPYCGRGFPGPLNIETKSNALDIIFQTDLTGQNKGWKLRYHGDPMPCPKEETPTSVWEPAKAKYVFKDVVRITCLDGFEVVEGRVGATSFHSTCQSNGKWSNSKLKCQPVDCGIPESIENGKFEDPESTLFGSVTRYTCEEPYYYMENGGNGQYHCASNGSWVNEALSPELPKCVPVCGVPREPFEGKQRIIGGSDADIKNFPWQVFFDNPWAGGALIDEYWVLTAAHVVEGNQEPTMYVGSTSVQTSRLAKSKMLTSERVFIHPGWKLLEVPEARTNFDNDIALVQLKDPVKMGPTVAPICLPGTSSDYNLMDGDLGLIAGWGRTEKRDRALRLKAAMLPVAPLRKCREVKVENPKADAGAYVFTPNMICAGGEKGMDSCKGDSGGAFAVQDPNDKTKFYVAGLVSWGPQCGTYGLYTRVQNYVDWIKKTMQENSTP


Experiments:
[1] = biological target: T1, Human active C1s (Complement Technology); assay: cell-based or functional assay
[2] = biological target: T3, His-tagged recombinant human TfR (produced in-house) (human, UniProt P02786 89-760); assay: affinity of bispecific purified from CHO cells (SPR; details not restated)
T3 construct: also called hTfR; transferrin receptor 1
T3 sequence (P02786 89-760 limits assumed): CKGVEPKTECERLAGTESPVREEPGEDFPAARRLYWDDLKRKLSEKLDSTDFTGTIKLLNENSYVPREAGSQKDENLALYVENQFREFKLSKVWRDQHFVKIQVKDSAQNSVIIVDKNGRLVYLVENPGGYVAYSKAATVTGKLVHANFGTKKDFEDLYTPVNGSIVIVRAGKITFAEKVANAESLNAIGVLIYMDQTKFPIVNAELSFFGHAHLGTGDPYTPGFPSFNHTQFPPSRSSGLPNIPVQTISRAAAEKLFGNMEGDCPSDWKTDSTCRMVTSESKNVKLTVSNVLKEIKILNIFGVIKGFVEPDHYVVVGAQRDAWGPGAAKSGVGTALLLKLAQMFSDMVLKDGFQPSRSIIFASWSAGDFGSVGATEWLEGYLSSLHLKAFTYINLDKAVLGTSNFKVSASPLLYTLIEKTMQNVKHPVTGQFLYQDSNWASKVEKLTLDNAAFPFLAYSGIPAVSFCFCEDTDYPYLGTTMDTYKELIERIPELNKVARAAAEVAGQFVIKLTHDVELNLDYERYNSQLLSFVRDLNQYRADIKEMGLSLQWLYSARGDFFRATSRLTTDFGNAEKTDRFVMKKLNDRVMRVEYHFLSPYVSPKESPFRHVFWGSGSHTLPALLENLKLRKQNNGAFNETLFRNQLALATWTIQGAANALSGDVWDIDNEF

[3] = biological target: T1, Human active C1s (Complement Technology); assay: as above
cynomolgus TfR = biological target: T4, cynomolgus TfR (cynomolgus, UniProt H9EXL1 89-760 (rhesus entry)); assay: as above
T4 construct: also called Cyno TfR; cTfR
T4 sequence (chain, as listed by the source): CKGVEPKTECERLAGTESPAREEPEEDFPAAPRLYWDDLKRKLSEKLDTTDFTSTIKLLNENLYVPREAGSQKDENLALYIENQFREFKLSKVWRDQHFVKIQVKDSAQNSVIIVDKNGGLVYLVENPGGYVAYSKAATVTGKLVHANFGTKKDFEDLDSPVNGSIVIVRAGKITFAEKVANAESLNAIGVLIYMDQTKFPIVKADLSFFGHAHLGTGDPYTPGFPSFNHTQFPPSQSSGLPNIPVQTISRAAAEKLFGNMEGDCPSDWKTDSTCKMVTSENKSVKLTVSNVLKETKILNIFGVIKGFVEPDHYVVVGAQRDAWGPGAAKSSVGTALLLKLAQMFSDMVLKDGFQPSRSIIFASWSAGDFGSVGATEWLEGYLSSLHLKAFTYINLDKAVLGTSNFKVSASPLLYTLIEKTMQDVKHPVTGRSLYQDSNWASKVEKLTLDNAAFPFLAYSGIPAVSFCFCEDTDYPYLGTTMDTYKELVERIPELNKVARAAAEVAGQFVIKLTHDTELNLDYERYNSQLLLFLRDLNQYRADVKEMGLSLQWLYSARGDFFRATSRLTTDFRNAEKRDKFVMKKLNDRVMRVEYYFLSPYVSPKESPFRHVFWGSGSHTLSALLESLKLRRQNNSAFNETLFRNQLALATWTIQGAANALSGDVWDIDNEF

cynomolgus aC1s = biological target: T2, cynomolgus aC1s; assay: as above

Row | Binder | IC50, Wieslab Complement Pathway Assay [1] | IC90, Wieslab Complement Pathway Assay [1] | Kd [2] | Kd [3] | Kd (cynomolgus TfR) | Kd (cynomolgus aC1s)
1 | bispecific anti-aC1s (L4H5)/anti-TfR (531v25.v6) antibody (bispecific antibody, human IgG4 S228P, kappa, Purified from CHO cells; monovalent for aC1s) heavy 1: QVQLVQSGAEVKKPGASVKLSCTASGFNIKDDYIHWVKEAPGQGLEWIGRIDPADGHTKYAPKFQVKVTITAATSTSTAYLQLSSLRSEDTAVYYCARYGYGREVFDYWGQGTTVTVSSASTKGPSVFPLAPCSRSTSESTAALGCLVKDYFPEPVTVSWNSGALTSGVHTFPAVLQSSGLYSLSSVVEVPSSSLGTKTYTCNVDHKPSNTKVDERVESDYGPPCPPCPAPEFEGGPSVFLFPPKPKDTLMISRTPEVTCVVVDVSQEDPEVQFNWYVDGVEVHNAKTKPREEQFNSTYRVVSVLTVLHQDWLNGKEYKCKVSNKGLPSSIEKTISKAKGQPREPQVCTLPPSQEEMTKNQVSLSCAVKGFYPSDIAVEWESNGQPENNYKTTPPVLDSDGSFFLVSRLTVDKSRWQEGNVFSCSVLHEALHSRFTQKSLSLSLG light 1: DIVMTQSPDSLAVSLGERATISCKSSQSVDYEGDSYLNWYQKKPGQPPKLLIYDASNLESGVPDRFSGSGSGTDFTLTISSLQAEDVAVYYCQQSNEDPWTFGQGTKVEIKRTVAAPAVFIFPPSKKQLKSGTASVVCLLKNFYPREAKVQWKVDNALQSGNSQESVTEQDSKDSTYSLSSTLTLSKADYEKHKVYACEVTHQGLSSPVTKSFNRGEC heavy 2: QVQLVQSGAEVKKPGASVKVSCKASGYTFTRYYLNWVRKAPGQGLEWIGMIDPSVSETHYAQKFQGRATLTVDKSTSTAYMELSSLRSEDTAVYYCSQIRLPYYYAMDSWGQGTTVTVSSASTKGPSVFPLAPCSRSTSESTAALGCLVKDYFPEPVTVSWNSGALTSGVHTFPAVLQSSGLYSLSSVVTVPSSSLGTKTYTCNVDHKPSNTKVDKRVESKYGPPCPPCPAPEFEGGPSVFLFPPKPKDTLMISRTPEVTCVVVDVSQEDPEVQFNWYVDGVEVHNAKTKPREEQFNSTYRVVSVLTVLHQDWLNGKEYKCKVSNKGLPSSIEKTISKAKGQPREPQVYTLPPCQEEMTKNQVSLWCLVKGFYPSDIAVEWESNGQPENNYKTTPPVLDSDGSFFLYSRLTVDKSRWQEGNVFSCSVLHEALHSHYTQKSLSLSLG light 2: DIQMTQSPSSLSASVGDRVTITCRASQDIESFLNWYQEKPGKAPKLLIYYTSRLQSGVPSRFSGSGSGTDYTLTISSLQPEDFATYYCQQGNTLPRTFGGGTKVEIKRTVAAPSVFIFPPSDEQLKSGTASVVCLLNNFYPREAKVQWKVDNALQSGNSQESVTEQDSKDSTYSLSSTLTLSKADYEKHKVYACEVTHQGLSSPVTKSFNRGEC | 1.04 µg/mL | 7.55 µg/mL | 39.3 nM | 2.26 nM | 72.5 nM | 0.252 nM
2 | bispecific anti-aC1s (L2)/anti-TfR (531v25.v6) antibody (bispecific antibody, human IgG4 S228P, kappa, Purified from CHO cells; monovalent for aC1s) heavy 1: QVQLVQSGAEVKKPGASVKLSCTASGFNIKDDYIHWVKEAPGQGLEWIGRIDPADGHTKYAPKFQVKVTITADTSTSTAYLELSSLRSEDTAVYYCARYGYGREVFDYWGQGTTVTVSSASTKGPSVFPLAPCSRSTSESTAALGCLVKDYFPEPVTVSWNSGALTSGVHTFPAVLQSSGLYSLSSVVEVPSSSLGTKTYTCNVDHKPSNTKVDERVESDYGPPCPPCPAPEFEGGPSVFLFPPKPKDTLMISRTPEVTCVVVDVSQEDPEVQFNWYVDGVEVHNAKTKPREEQFNSTYRVVSVLTVLHQDWLNGKEYKCKVSNKGLPSSIEKTISKAKGQPREPQVCTLPPSQEEMTKNQVSLSCAVKGFYPSDIAVEWESNGQPENNYKTTPPVLDSDGSFFLVSRLTVDKSRWQEGNVFSCSVLHEALHSRFTQKSLSLSLG light 1: DIVMTQSPDSLAVSLGERATISCKSSQSVDYEGDSYLNWYQKKPGQPPKLLIYDASNLESGVPDRFSGSGSGTAFTLTISSLQAEDVAVYYCQQSNEDPWTFGQGTKVEIKRTVAAPAVFIFPPSKKQLKSGTASVVCLLKNFYPREAKVQWKVDNALQSGNSQESVTEQDSKDSTYSLSSTLTLSKADYEKHKVYACEVTHQGLSSPVTKSFNRGEC heavy 2: QVQLVQSGAEVKKPGASVKVSCKASGYTFTRYYLNWVRKAPGQGLEWIGMIDPSVSETHYAQKFQGRATLTVDKSTSTAYMELSSLRSEDTAVYYCSQIRLPYYYAMDSWGQGTTVTVSSASTKGPSVFPLAPCSRSTSESTAALGCLVKDYFPEPVTVSWNSGALTSGVHTFPAVLQSSGLYSLSSVVTVPSSSLGTKTYTCNVDHKPSNTKVDKRVESKYGPPCPPCPAPEFEGGPSVFLFPPKPKDTLMISRTPEVTCVVVDVSQEDPEVQFNWYVDGVEVHNAKTKPREEQFNSTYRVVSVLTVLHQDWLNGKEYKCKVSNKGLPSSIEKTISKAKGQPREPQVYTLPPCQEEMTKNQVSLWCLVKGFYPSDIAVEWESNGQPENNYKTTPPVLDSDGSFFLYSRLTVDKSRWQEGNVFSCSVLHEALHSHYTQKSLSLSLG light 2: DIQMTQSPSSLSASVGDRVTITCRASQDIESFLNWYQEKPGKAPKLLIYYTSRLQSGVPSRFSGSGSGTDYTLTISSLQPEDFATYYCQQGNTLPRTFGGGTKVEIKRTVAAPSVFIFPPSDEQLKSGTASVVCLLNNFYPREAKVQWKVDNALQSGNSQESVTEQDSKDSTYSLSSTLTLSKADYEKHKVYACEVTHQGLSSPVTKSFNRGEC | 1.37 µg/mL | 10.2 µg/mL | 29.9 nM | 3.19 nM | 52.8 nM | 0.243 nM
3 | bispecific anti-aC1s (L2H5)/anti-TfR (531v25.v6) antibody (bispecific antibody, human IgG4 S228P, kappa, Purified from CHO cells; monovalent for aC1s) heavy 1: QVQLVQSGAEVKKPGASVKLSCTASGFNIKDDYIHWVKEAPGQGLEWIGRIDPADGHTKYAPKFQVKVTITAATSTSTAYLQLSSLRSEDTAVYYCARYGYGREVFDYWGQGTTVTVSSASTKGPSVFPLAPCSRSTSESTAALGCLVKDYFPEPVTVSWNSGALTSGVHTFPAVLQSSGLYSLSSVVEVPSSSLGTKTYTCNVDHKPSNTKVDERVESDYGPPCPPCPAPEFEGGPSVFLFPPKPKDTLMISRTPEVTCVVVDVSQEDPEVQFNWYVDGVEVHNAKTKPREEQFNSTYRVVSVLTVLHQDWLNGKEYKCKVSNKGLPSSIEKTISKAKGQPREPQVCTLPPSQEEMTKNQVSLSCAVKGFYPSDIAVEWESNGQPENNYKTTPPVLDSDGSFFLVSRLTVDKSRWQEGNVFSCSVLHEALHSRFTQKSLSLSLG light 1: DIVMTQSPDSLAVSLGERATISCKSSQSVDYEGDSYLNWYQKKPGQPPKLLIYDASNLESGVPDRFSGSGSGTAFTLTISSLQAEDVAVYYCQQSNEDPWTFGQGTKVEIKRTVAAPAVFIFPPSKKQLKSGTASVVCLLKNFYPREAKVQWKVDNALQSGNSQESVTEQDSKDSTYSLSSTLTLSKADYEKHKVYACEVTHQGLSSPVTKSFNRGEC heavy 2: QVQLVQSGAEVKKPGASVKVSCKASGYTFTRYYLNWVRKAPGQGLEWIGMIDPSVSETHYAQKFQGRATLTVDKSTSTAYMELSSLRSEDTAVYYCSQIRLPYYYAMDSWGQGTTVTVSSASTKGPSVFPLAPCSRSTSESTAALGCLVKDYFPEPVTVSWNSGALTSGVHTFPAVLQSSGLYSLSSVVTVPSSSLGTKTYTCNVDHKPSNTKVDKRVESKYGPPCPPCPAPEFEGGPSVFLFPPKPKDTLMISRTPEVTCVVVDVSQEDPEVQFNWYVDGVEVHNAKTKPREEQFNSTYRVVSVLTVLHQDWLNGKEYKCKVSNKGLPSSIEKTISKAKGQPREPQVYTLPPCQEEMTKNQVSLWCLVKGFYPSDIAVEWESNGQPENNYKTTPPVLDSDGSFFLYSRLTVDKSRWQEGNVFSCSVLHEALHSHYTQKSLSLSLG light 2: DIQMTQSPSSLSASVGDRVTITCRASQDIESFLNWYQEKPGKAPKLLIYYTSRLQSGVPSRFSGSGSGTDYTLTISSLQPEDFATYYCQQGNTLPRTFGGGTKVEIKRTVAAPSVFIFPPSDEQLKSGTASVVCLLNNFYPREAKVQWKVDNALQSGNSQESVTEQDSKDSTYSLSSTLTLSKADYEKHKVYACEVTHQGLSSPVTKSFNRGEC | 1.23 µg/mL | 9.7 µg/mL | 34.3 nM | 2.64 nM | 48.9 nM | 0.315 nM
